Laboratory results: paper doi:10.1101/2023.01.17.524398

Biological target: Aplysia punctata ink toxin (APIT), recombinant (Aplysia punctata)
Assay: MALDI mass spectrometry

## Aplysia punctata ink toxin (APIT), recombinant (enzyme)
  stoichiometry N: 2
